Assay results from article PMC4849863 (Nature structural & molecular biology, 2015).

B5: Dpb2 (S. cerevisiae), subunit of Pol ε (natural protein, Saccharomyces cerevisiae, UniProt P24482 1-689, looked up)
chain: MFGSGNVLPVKIQPPLLRPLAYRVLSRKYGLSIKSDGLSALAEFVGTNIGANWRQGPATIKFLEQFAAVWKQQERGLFIDQSGVKEVIQEMKEREKVEWSHEHPIQHEENILGRTDDDENNSDDEMPIAADSSLQNVSLSSPMRQPTERDEYKQPFKPESSKALDWRDYFKVINASQQQRFSYNPHKMQFIFVPNKKQNGLGGIAGFLPDIEDKVQMFLTRYYLTNDRVMRNENFQNSDMFNPLSSMVSLQNELSNTNRQQQSSSMSITPIKNLLGRDAQNFLLLGLLNKNFKGNWSLEDPSGSVEIDISQTIPTQGHYYVPGCMVLVEGIYYSVGNKFHVTSMTLPPGERREITLETIGNLDLLGIHGISNNNFIARLDKDLKIRLHLLEKELTDHKFVILGANLFLDDLKIMTALSKILQKLNDDPPTLLIWQGSFTSVPVFASMSSRNISSSTQFKNNFDALATLLSRFDNLTENTTMIFIPGPNDLWGSMVSLGASGTLPQDPIPSAFTKKINKVCKNVVWSSNPTRIAYLSQEIVIFRDDLSGRFKRHRLEFPFNESEDVYTENDNMMSKDTDIVPIDELVKEPDQLPQKVQETRKLVKTILDQGHLSPFLDSLRPISWDLDHTLTLCPIPSTMVLCDTTSAQFDLTYNGCKVINPGSFIHNRRARYMEYVPSSKKTIQEEIYI

Experiments:
[1] = target: CMG helicase (Cdc45-Mcm2-7-GINS, 11 subunits) (Saccharomyces cerevisiae, UniProt P29469;P24279;P30665;P29496;P53091;P38132;Q08032;Q12488;P40359;Q12146;Q03406 …); test: EMSA
[2] = target: T1, Cdc45 (S. cerevisiae), subunit of CMG (Saccharomyces cerevisiae, UniProt Q08032 1-650); test: cross-linking
T1 sequence (looked up): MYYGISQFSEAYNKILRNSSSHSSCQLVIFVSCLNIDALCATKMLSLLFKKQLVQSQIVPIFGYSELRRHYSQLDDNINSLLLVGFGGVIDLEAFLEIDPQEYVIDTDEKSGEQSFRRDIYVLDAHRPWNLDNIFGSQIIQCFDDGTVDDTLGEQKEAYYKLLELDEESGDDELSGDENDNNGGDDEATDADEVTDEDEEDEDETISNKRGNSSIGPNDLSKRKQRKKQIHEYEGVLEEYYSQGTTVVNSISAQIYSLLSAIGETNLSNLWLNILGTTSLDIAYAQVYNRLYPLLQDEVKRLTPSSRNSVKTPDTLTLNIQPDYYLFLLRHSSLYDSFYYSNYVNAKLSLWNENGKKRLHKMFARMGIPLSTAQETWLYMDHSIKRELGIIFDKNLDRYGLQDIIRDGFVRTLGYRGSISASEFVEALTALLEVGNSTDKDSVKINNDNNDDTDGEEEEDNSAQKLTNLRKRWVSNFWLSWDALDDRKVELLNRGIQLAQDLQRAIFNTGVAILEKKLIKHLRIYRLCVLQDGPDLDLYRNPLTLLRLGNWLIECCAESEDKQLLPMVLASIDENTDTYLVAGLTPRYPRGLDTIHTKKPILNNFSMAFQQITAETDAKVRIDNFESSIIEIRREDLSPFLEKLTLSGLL

[3] = target: Mcm3 (S. cerevisiae), subunit of CMG (Saccharomyces cerevisiae, UniProt P24279 1-971); test: cross-linking
[4] = target: B5; test: cross-linking
[5] = target: T2, Mcm5 (S. cerevisiae), subunit of CMG (Saccharomyces cerevisiae, UniProt P29496 1-775); test: cross-linking
T2 sequence (looked up): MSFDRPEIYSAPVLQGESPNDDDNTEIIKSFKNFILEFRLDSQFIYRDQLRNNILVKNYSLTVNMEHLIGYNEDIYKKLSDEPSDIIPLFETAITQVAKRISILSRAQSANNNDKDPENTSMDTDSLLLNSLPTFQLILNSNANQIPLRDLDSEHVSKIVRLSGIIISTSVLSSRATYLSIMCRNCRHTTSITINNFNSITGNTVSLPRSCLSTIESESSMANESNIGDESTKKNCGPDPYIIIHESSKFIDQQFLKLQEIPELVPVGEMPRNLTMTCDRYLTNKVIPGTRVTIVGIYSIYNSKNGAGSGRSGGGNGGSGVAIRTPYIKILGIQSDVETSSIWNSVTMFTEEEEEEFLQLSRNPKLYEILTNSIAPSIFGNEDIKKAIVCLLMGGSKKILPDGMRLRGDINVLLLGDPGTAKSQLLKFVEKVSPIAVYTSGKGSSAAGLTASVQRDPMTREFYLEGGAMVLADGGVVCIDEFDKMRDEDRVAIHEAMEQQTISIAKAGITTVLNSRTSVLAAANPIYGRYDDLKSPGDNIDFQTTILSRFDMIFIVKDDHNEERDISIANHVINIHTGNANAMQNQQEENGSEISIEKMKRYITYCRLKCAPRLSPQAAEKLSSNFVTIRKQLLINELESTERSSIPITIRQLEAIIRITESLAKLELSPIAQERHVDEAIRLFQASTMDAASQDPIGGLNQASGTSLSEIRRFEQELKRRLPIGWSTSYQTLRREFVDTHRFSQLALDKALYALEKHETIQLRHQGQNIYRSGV

Mcm3 (S. cerevisiae), subunit of CMG, sequence (P24279 whole entry): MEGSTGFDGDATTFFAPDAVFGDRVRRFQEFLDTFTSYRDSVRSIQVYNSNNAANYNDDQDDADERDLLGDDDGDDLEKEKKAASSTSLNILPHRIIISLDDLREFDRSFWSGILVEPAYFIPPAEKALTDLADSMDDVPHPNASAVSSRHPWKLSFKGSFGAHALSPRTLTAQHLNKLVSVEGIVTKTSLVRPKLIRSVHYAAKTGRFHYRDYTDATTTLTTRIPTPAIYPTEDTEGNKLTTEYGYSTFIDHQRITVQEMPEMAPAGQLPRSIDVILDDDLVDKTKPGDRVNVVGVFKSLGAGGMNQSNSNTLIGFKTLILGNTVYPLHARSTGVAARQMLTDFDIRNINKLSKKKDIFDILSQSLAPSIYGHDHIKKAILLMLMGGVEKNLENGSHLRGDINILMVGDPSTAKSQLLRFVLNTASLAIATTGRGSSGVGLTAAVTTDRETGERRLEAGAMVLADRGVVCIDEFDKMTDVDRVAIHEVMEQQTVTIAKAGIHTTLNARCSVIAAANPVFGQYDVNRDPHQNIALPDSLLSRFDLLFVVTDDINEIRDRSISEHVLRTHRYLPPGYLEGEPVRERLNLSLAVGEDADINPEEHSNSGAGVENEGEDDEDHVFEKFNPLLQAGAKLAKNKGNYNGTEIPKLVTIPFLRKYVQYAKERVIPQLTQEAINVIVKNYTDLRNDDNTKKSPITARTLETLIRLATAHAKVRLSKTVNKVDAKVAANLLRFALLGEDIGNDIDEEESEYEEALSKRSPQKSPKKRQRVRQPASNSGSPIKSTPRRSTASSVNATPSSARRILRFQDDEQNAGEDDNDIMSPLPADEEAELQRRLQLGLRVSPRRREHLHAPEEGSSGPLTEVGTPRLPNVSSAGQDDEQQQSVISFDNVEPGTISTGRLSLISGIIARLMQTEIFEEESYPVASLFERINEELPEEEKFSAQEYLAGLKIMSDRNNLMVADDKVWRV

B1: 80/75mer unprimed fork (mixed)
DNA 1: CCCCCACCGATGTGGTAGGAAGTGAGAATTGGAGAGTGTGTTTTTTTTTTTTTTTTTTTTTTTTTTTTTTTTTTTTTTTT
DNA 2: TTTTTTTTTTTTTTTTTTTTTTTTTTTTTTTTTTTTTTTTCACACTCTCCAATTCTCACTTCCTACCACATCGGT
B1: binds [1].

B2: Dpb3 (S. cerevisiae), subunit of Pol ε (natural protein, Saccharomyces cerevisiae, UniProt P27344 1-201, looked up)
chain: MSNLVKEKAPVFPISKVKKIAKCDPEYVITSNVAISATAFAAELFVQNLVEESLVLAQLNSKGKTSLRLSLNSIEECVEKRDNFRFLEDAIKQLKKNSALDKKRELNMQPGRSDQEVVIEEPELHEDDGVEEEEEEDEVSEEEEPVHNEELLDDSKDQQNDKSTRSVASLLSRFQYKSALDVGEHSDSSDIEVDHTKSTDP
B2: binds [2].

B3: GINS heterotetramer (Psf1, Psf2, Psf3, Sld5) of S. cerevisiae CMG (complex, Saccharomyces cerevisiae)
chain 1: MYGDLGNKLVLEAKRTKQLYARSNQDVNLPMYHEDIIRNILKEVSNLRKNTEYLKEQQQLGMLDDKVAKCQYFVTLLCMERNKRCLLAYQRLRTDILDSMAWNNNGLDLMSSITFSQQDTNNLSHQEQEYLKEYCDLITDLKSGDLVDIDLSGSLVPPSDVFIDVRVLKDAGEIQTEYGVFNLIKDSQFFVRQSDVERLIQQGYLQKI
chain 2: MSLPAHLQQTFSPEEIQFIVENEPIKIFPRITTRQKIRGDDRGTGNHTRWQLITTDDKALNNMVAMRSTEVVLWIALLLKQQSKCSIVAPQWLTTKELDRKIQYEKTHPDRFSELPWNWLVLARILFNKAKDDFHDPIHELRGKIQDLREIRQIKVLKGLKYLNESHLQLDNLSLLEINELRPFITEIMDKLREIHTASLTAGTENDEEEFNI
chain 3: MGYYDIDDVLADGTEFPCKFQYDIPGLGYLENNPGRPITKNTKLSLPLWLARILAIVGGDEALVDEEPVPFVELLPPDMFSTKVMNAIKTDPVALDLHSINSHFFSLAIKWIMLFSEKELANVVSELLLQRAQELNHHASSLSIDLNADSTGKNSANTNIATSTFLLKLEEMEKEIYKKSHESYKDTKRWMFKK
chain 4: MDINIDDILAELDKETTAVDSTKITQGSSSTTHRDANTIVGSSLDLNDKTQIYVSPQQDFSDLMKSWKNERCSPELLPYPHQLMKRLLNRISMQSQLIENISMGFLDMQNASNANPPMPNESKLPLLCMETELERLKFVIRSYIRCRLSKIDKFSLYLRQLNEDENSLISLTDLLSKDEIKYHDTHSLIWLKLVNDSILKYMPEELQAINDTEGSVNMIDEPDWNKFVFIHVNGPPDGKWNEDPLLQENEFGKPCYTVTIPDLKEEVELTIGSIYVMRYEVIRDLLRDDKVALI
B3: binds [3].

B4: Psf1 (S. cerevisiae), subunit of GINS in CMG (natural protein, Saccharomyces cerevisiae, UniProt Q12488 1-208, looked up)
chain: MYGDLGNKLVLEAKRTKQLYARSNQDVNLPMYHEDIIRNILKEVSNLRKNTEYLKEQQQLGMLDDKVAKCQYFVTLLCMERNKRCLLAYQRLRTDILDSMAWNNNGLDLMSSITFSQQDTNNLSHQEQEYLKEYCDLITDLKSGDLVDIDLSGSLVPPSDVFIDVRVLKDAGEIQTEYGVFNLIKDSQFFVRQSDVERLIQQGYLQKI
B4: binds [2]; binds [4].

B5: binds [5].

B6: Dpb4 (S. cerevisiae), subunit of Pol ε (natural protein, Saccharomyces cerevisiae, UniProt Q04603 1-196, looked up)
chain: MPPKGWRKDAQGNYPTTSYIKEQENITIQDLLFPKSTIVNLAREVPQQSGKKLLINKDASLALQRGATVFVNHLLLFAREIAKSQDKKSCSVDDVLSALDHIGHSALKGPVRDKLDEYQAAVEQRKKEKLDSGEVDADGDIDMGEDKENVPVEKVKEHDEIEEQGDALQDVEESSEKKQKTESQDVETRVQNLEQT
B6: binds [2].
